Experimental data: US20190112367A1
One block for each binder: values may come before it.

Experiments:
[1] = target: human IL-32gamma (R&D) (human) (UniProt P24001); experiment: ELISA, antigen coated at 1 µg/ml, serial dilutions of MAB
[2] = target: human IL-32gamma (R&D) (human) (UniProt P24001); experiment: cell-based or functional assay
[3] = target: IL-32 (isotype not stated, analyte of the SPR experiment) (UniProt P24001); experiment: SPR, ProteOn XPR36, IL-32 injected over the antibody

EC50 [1]: 1.33 µg/mL
B1: anti-IL-32 antibody 26A6 (IgG1, lambda) (antibody, V domains shown)
VH: QVQLVESGGGVVQPGRSLRLSCVASGLTFRTYGMHWVRQAPGNGLEWVAIIWHDGNKKYFADSVKGRFTISRDNSKNSLYLQMNSLRVEDTAVYYCAREMNGIDVWGQGTTVTVSS
VL: SYELTQPPSVSVSPGQTARITCSGDALPETYVYWYQQKSGQAPVKLIYEDSERPSGIPERFSGSSSGTLATLTISGAHVEDEADYYCYSTDSSGIGVFGGGTKVTVLS

IC 50 (neutralization of IL-32γ activity) [2]: 0.3 µg/mL
Kd [3]: 4 nM
EC50 [1]: 0.526 µg/mL
B2: anti-IL-32 antibody 2C2 (IgG3, lambda) (antibody, V domains shown)
VH: QLRVQESGPGLLKPAETLSLTCSVSSGSVSNSRYYWAWIRQSPGKGLEWIGSMYYRGRSYYNPSLKSRLTISIDTSKNQFSLKLTSLTAADTAVYYCAAAVYHDLDYWGQGTLVTVSS
VL: QSVLTQPPSVSAAPGQKVTISCSGSGSSIGNNYVSWYQQLPGAAPKLLIYDNTKRPSGIPDRFSGSKSGTSATLAITGLQPGDAADYYCGTWDSSFSVFWVFGGGTKLTVLS
